Data reported in the supplement of paper PMC9112550, “Optimization of the antimicrobial peptide Bac7 by deep mutational scanning” (BMC Biology, 2022).

Test system: Escherichia coli TOP10
Assay: shrunken log2 fold change of peptide-encoding DNA abundance (4.5 h post-induction vs induction); higher = less antimicrobial activity (less host growth inhibition)
Conditions: time post-induction: 4.5 h; library: site-saturation at positions 5, 18, 19, 20
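Further: peptides expressed intracellularly from a pBAD plasmid library in pooled LB shake-flask culture, induced with 0.3% L-arabinose, DNA abundance read by NGS, three biological replicates, DESeq2 with apeglm shrinkage.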

| Sequence | shrunken log2 fold change |
| --- | --- |
| RRIRKRPPRLPRPRPRPIWNPRP | -0.0253 |
| RRIRWRPPRLPRPRPRPYRPPRP | -0.573 |
| RRIRKRPPRLPRPRPRPDRTPRP | 0.0739 |
| RRIRIRPPRLPRPRPRPLFGPRP | -0.102 |
| RRIRNRPPRLPRPRPRPERNPRP | -0.0623 |
| RRIRKRPPRLPRPRPRPWRKPRP | 0.0487 |
| RRIRWRPPRLPRPRPRPFPAPRP | 0.342 |
| RRIRYRPPRLPRPRPRPVKDPRP | -0.0122 |
| RRIRMRPPRLPRPRPRPFIEPRP | -0.0583 |
| RRIRKRPPRLPRPRPRPHINPRP | -0.124 |
| RRIRTRPPRLPRPRPRPAIEPRP | 0.0358 |
| RRIRPRPPRLPRPRPRPAMLPRP | 0.233 |
| RRIRSRPPRLPRPRPRPWKTPRP | -0.0527 |
| RRIRARPPRLPRPRPRPTVLPRP | 0.106 |
| RRIRQRPPRLPRPRPRPGCGPRP | 0.442 |
| RRIRHRPPRLPRPRPRPDSVPRP | -0.117 |
| RRIRTRPPRLPRPRPRPHFTPRP | -0.149 |
| RRIRTRPPRLPRPRPRPMSGPRP | -0.137 |
| RRIRMRPPRLPRPRPRPWAEPRP | 0.628 |
| RRIRLRPPRLPRPRPRPFGFPRP | -0.15 |
| RRIRLRPPRLPRPRPRPRHFPRP | -0.131 |
| RRIRCRPPRLPRPRPRPQSAPRP | -0.0724 |

| Sequence | shrunken log2 fold change |
| --- | --- |
| RRIRRRPPRLPRPRPRPSHLPRP | -0.21 |
| RRIRQRPPRLPRPRPRPRSLPRP | -0.0177 |
| RRIRWRPPRLPRPRPRPTNCPRP | -0.0666 |
| RRIRHRPPRLPRPRPRPKCDPRP | -0.0608 |
| RRIRTRPPRLPRPRPRPKHPPRP | -0.317 |
| RRIRFRPPRLPRPRPRPHSDPRP | -0.129 |
| RRIRQRPPRLPRPRPRPTNHPRP | -0.552 |
| RRIRGRPPRLPRPRPRPSNNPRP | 0.0994 |
| RRIRGRPPRLPRPRPRPCLWPRP | 0.426 |
| RRIRIRPPRLPRPRPRPRLFPRP | 0.0705 |
| RRIRFRPPRLPRPRPRPVPCPRP | 0.0335 |
| RRIRFRPPRLPRPRPRPSMFPRP | -0.505 |
| RRIRRRPPRLPRPRPRPDALPRP | 0.23 |
| RRIRSRPPRLPRPRPRPMRFPRP | 0.378 |
| RRIRHRPPRLPRPRPRPVTSPRP | -0.000369 |
| RRIRCRPPRLPRPRPRPYKRPRP | -0.909 |
| RRIRSRPPRLPRPRPRPGNWPRP | -0.0906 |
| RRIRQRPPRLPRPRPRPEDFPRP | -0.0175 |
| RRIRWRPPRLPRPRPRPVGHPRP | 0.243 |
| RRIRERPPRLPRPRPRPNMNPRP | -0.808 |
| RRIRPRPPRLPRPRPRPCLWPRP | 0.0902 |
| RRIRKRPPRLPRPRPRPGESPRP | 0.0841 |

| Sequence | shrunken log2 fold change |
| --- | --- |
| RRIRMRPPRLPRPRPRPCIVPRP | -0.0122 |
| RRIRDRPPRLPRPRPRPCTGPRP | -0.0116 |
| RRIRIRPPRLPRPRPRPSGCPRP | -0.137 |
| RRIRLRPPRLPRPRPRPVCQPRP | 0.155 |
| RRIRGRPPRLPRPRPRPTTNPRP | 0.878 |
| RRIRVRPPRLPRPRPRPTPGPRP | 0.258 |
| RRIRRRPPRLPRPRPRPFNSPRP | 0.0474 |
| RRIRQRPPRLPRPRPRPEPVPRP | 0.0323 |
| RRIRQRPPRLPRPRPRPASPPRP | -0.0456 |
| RRIRIRPPRLPRPRPRPCPMPRP | -0.367 |
| RRIRARPPRLPRPRPRPTEAPRP | 0.453 |
| RRIRSRPPRLPRPRPRPVQPPRP | 0.107 |
| RRIRYRPPRLPRPRPRPNMAPRP | -0.00884 |
| RRIRIRPPRLPRPRPRPTTTPRP | -0.00987 |
| RRIRIRPPRLPRPRPRPQTPPRP | -0.0927 |
| RRIRYRPPRLPRPRPRPHNRPRP | -0.245 |
| RRIRQRPPRLPRPRPRPKTSPRP | -0.15 |
| RRIRRRPPRLPRPRPRPYFVPRP | -0.381 |
| RRIRKRPPRLPRPRPRPGWCPRP | 0.639 |
| RRIRNRPPRLPRPRPRPKQFPRP | -0.214 |
| RRIRDRPPRLPRPRPRPEDHPRP | 1.08 |
| RRIRRRPPRLPRPRPRPNCWPRP | 0.228 |

| Sequence | shrunken log2 fold change |
| --- | --- |
| RRIRTRPPRLPRPRPRPVGKPRP | 0.0504 |
| RRIRVRPPRLPRPRPRPIFTPRP | -0.0783 |
| RRIRPRPPRLPRPRPRPCWHPRP | -0.261 |
| RRIRIRPPRLPRPRPRPEFFPRP | 0.179 |
| RRIRHRPPRLPRPRPRPETIPRP | -0.0239 |
| RRIRSRPPRLPRPRPRPNADPRP | 0.113 |
| RRIRDRPPRLPRPRPRPHQFPRP | -0.282 |
| RRIRDRPPRLPRPRPRPDLSPRP | 0.0253 |
| RRIRPRPPRLPRPRPRPKFCPRP | 0.189 |
| RRIRIRPPRLPRPRPRPWQRPRP | -0.075 |
| RRIRFRPPRLPRPRPRPMPSPRP | 0.0917 |
| RRIRYRPPRLPRPRPRPPINPRP | -0.378 |
| RRIRDRPPRLPRPRPRPQPMPRP | -0.0809 |
| RRIRWRPPRLPRPRPRPCCGPRP | 0.293 |
| RRIRKRPPRLPRPRPRPWVFPRP | 0.0817 |
| RRIRVRPPRLPRPRPRPKFEPRP | 0.12 |
| RRIRERPPRLPRPRPRPKYMPRP | 0.822 |
| RRIRFRPPRLPRPRPRPHCGPRP | -0.308 |
| RRIRWRPPRLPRPRPRPYKFPRP | -0.22 |
| RRIRFRPPRLPRPRPRPTEFPRP | -0.217 |
| RRIRHRPPRLPRPRPRPRQLPRP | 0.0862 |
| RRIRPRPPRLPRPRPRPGVAPRP | 0.27 |

| Sequence | shrunken log2 fold change |
| --- | --- |
| RRIRWRPPRLPRPRPRPIRAPRP | -0.0266 |
| RRIRDRPPRLPRPRPRPKKAPRP | 0.0426 |
| RRIRGRPPRLPRPRPRPSHHPRP | -0.286 |
| RRIRIRPPRLPRPRPRPAFSPRP | -0.155 |
| RRIRARPPRLPRPRPRPDYIPRP | 0.00625 |
| RRIRSRPPRLPRPRPRPHDQPRP | 0.276 |
| RRIRGRPPRLPRPRPRPHTDPRP | 0.103 |
| RRIRTRPPRLPRPRPRPLTVPRP | -0.267 |
| RRIRSRPPRLPRPRPRPLGMPRP | -0.243 |
| RRIRPRPPRLPRPRPRPTSRPRP | -0.0592 |
| RRIRCRPPRLPRPRPRPTGCPRP | -0.0358 |
| RRIRLRPPRLPRPRPRPWWYPRP | -0.227 |
| RRIRRRPPRLPRPRPRPRAMPRP | 0.145 |
| RRIRNRPPRLPRPRPRPGKSPRP | -0.0101 |
| RRIRQRPPRLPRPRPRPLYRPRP | 0.0401 |
| RRIRGRPPRLPRPRPRPFYRPRP | -0.26 |
| RRIRLRPPRLPRPRPRPTYVPRP | -0.591 |
| RRIRERPPRLPRPRPRPGTAPRP | -0.0769 |
| RRIRDRPPRLPRPRPRPSAPPRP | 0.0189 |
| RRIRCRPPRLPRPRPRPGNRPRP | 0.0246 |
| RRIRWRPPRLPRPRPRPMGPPRP | 0.041 |
